Where a chain is given by its changes, count along the chain named. Entries after “also recorded” stand apart in the source; their conditions may differ.
How the values were obtained:
[1] = system: EGFR phosphorylation in PC9ER-AZDR cells; experiment: Western blot (immunoblot) of EGFR phosphorylation; type: cell-based, human; conditions: 1 μM, 6 hours
H1975 NSCLC cells = experiment: Tumorigenic growth in-vivo, xenograft; design: species or system CD1-nu/nu mice; conditions: for tumor growth: mAbs intraperitoneally once every three days from day 11, total 200 μg per mouse per injection
Description: Tumorigenic growth in-vivo—The animal studies were approved by the Weizmann Institute's Review Board (IRB). CD1/nude mice (Harlan Laboratories) were randomized in groups of ten mice and injected subcutaneously in the right flank with H1975 lung cancer cells (3×10^6 per mouse) or with PC9ER lung cancer cells (4×10^6 per mouse). PBS or mAbs were injected intraperitoneally once every three days at a total dose of 200 μg per mouse per injection starting 11 days following cells injection, until tumors reached the size of 1,500 mm^3. In experiments evaluating the effect of the TKI AZD-9291, Vehicle (Vehicle formulation: HPMC 0.5% (sigma Cat#56340), Tween80 0.1% (Sigma Cat #P8074 in water), Erlotinib at a dose of 50 mg/kg per injection, or AZD9291 at a dose of 1 or 5 mg/kg per injection were injected daily intraperitoneally. In one experiment (FIG. 17), mice were treated daily with Erlotinib at a dose of 50 mg/kg per injection until tumors reached a size of 800 mm^3 and only then were treated as indicated. Tumor volume was evaluated twice a week and body weight was evaluated once a week. Mice were euthanized when tumor size reached 1,500 mm^3. Few of the tumors were harvested from mice at the indicated time points and taken for further evaluation. Survival of the tumor bearing mice was recorded and depicted by Kaplan-Meier analysis.

PC9ER-AZDR cells [2] = experiment: MTT cell survival assay; type: cell-based, human; conditions: 72 hours, increasing doses
Description: (§1) Cell cultures—The H1975 (ATCC; NCI-H1975_CRL-5908) lung cancer cell line (EGFR mutations: L858R and T790M, ATCC; Rockville, Md.), PC9 and erlotinib-resistant PC9ER lung cancer cells (de1746-750+T790M) (described in 16) were maintained in RPMI-1640 supplemented with 10% FCS (Life technology) and antibiotics. PC9ER cells resistant to AZD-9291, denoted as PC9ER-AZDR cells, were generated by incubating PC9ER cells with AZD-9291 for three months. The dose, initially provided at 0.5 nM, was increased every 4 days per 1.5 fold up to 2.5 μM. NL20 (ATCC; NL20_CRL-2503), an immortalized human bronchial epithelial cell line (ATCC, Rockville, Md.) was maintained in F12K medium as recommended by the ATCC. Co-cultures in a ratio of 1:1 of WI38 (ATCC; CCL-75) and PC9ER or H1975 cells were maintained in DME medium supplemented with sodium pyruvate and fetal calf serum (FCS 5%; Life Technology).
(§2) Cell growth and survival—Cell survival was assessed using the 3-(4,5-dimethylthiazol-2-yl)-2,5 diphenyl tetrazolium bromide (MTT) assay (Sigma Cat#M2003). Cells were plated on 96-wells plates (2,000 cells/well) in triplicates. The medium was changed the following day and cells were treated as indicated. Following 3-4 days of incubation, MTT reagent was added to the cells for one hour followed by dissolving of the formazan crystals in SDS-DMF solution. Absorbance was measured using a microplate reader, Biorad Model 680, at 570 nm.

PC9ER-AZDR cells [3] = experiment: Tumorigenic growth in-vivo, xenograft; conditions: erlotinib 50 mg/kg/d; AZD9291 1 and 5 mg/kg/d; 3×mAbs 0.2 mg/mouse/injection once every three days
Description: A derivative of PC9ER cells (erlotinib-resistant) was implanted in the flank of immune compromised mice. Vehicle, erlotinib (50 mg/kg/d), low-dose AZD9291 (L; 1 mg/kg/d) and high-dose AZD9291 (H; 5 mg/kg/d) were daily administrated by oral gavage, while the 3×mAbs (triple antibody combination; CTX, TRZ, 33; 0.2 mg/mouse/injection) were administrated once every three days by intraperitoneal injection. Data are means±SEM from 9 mice in each group.
Tumorigenic growth in-vivo—The animal studies were approved by the Weizmann Institute's Review Board (IRB). […] In experiments evaluating the effect of the TKI AZD-9291, Vehicle (Vehicle formulation: HPMC 0.5% (sigma Cat#56340), Tween80 0.1% (Sigma Cat #P8074 in water), Erlotinib at a dose of 50 mg/kg per injection, or AZD9291 at a dose of 1 or 5 mg/kg per injection were injected daily intraperitoneally. In one experiment (FIG. 17), mice were treated daily with Erlotinib at a dose of 50 mg/kg per injection until tumors reached a size of 800 mm^3 and only then were treated as indicated. Tumor volume was evaluated twice a week and body weight was evaluated once a week. Mice were euthanized when tumor size reached 1,500 mm^3. […] Survival of the tumor bearing mice was recorded and depicted by Kaplan-Meier analysis.

PC9ER NSCLC cells = experiment: Tumorigenic growth in-vivo, xenograft; design: species or system CD1-nu/nu mice
Description: CD1/nude mice (Harlan Laboratories) were randomized in groups of ten mice and injected subcutaneously in the right flank with H1975 lung cancer cells (3×10^6 per mouse) or with PC9ER lung cancer cells (4×10^6 per mouse). PBS or mAbs were injected intraperitoneally once every three days at a total dose of 200 μg per mouse per injection starting 11 days following cells injection, until tumors reached the size of 1,500 mm^3. […] Few of the tumors were harvested from mice at the indicated time points and taken for further evaluation. Survival of the tumor bearing mice was recorded and depicted by Kaplan-Meier analysis.

PC9 cells = experiment: MTT cell survival assay; type: cell-based, human; conditions: 3 days treatment with increasing doses
Description: as §1, §2

H1975 cells = experiment: MTT cell survival assay; type: cell-based, human; conditions: for ability to inhibit survival of cultured NSCLC cells: 4 days, versus other anti-EGFR, anti-HER2, anti-HER3 mAbs (FIG. 3)
Description: as §1, §2

PC9ER cells = experiment: MTT cell survival assay; type: cell-based, human; conditions: for ability to inhibit survival of cultured NSCLC cells: 4 days, versus other anti-EGFR, anti-HER2, anti-HER3 mAbs (FIG. 3)
Description: as §1, §2

[4] = system: EGFR, HER2, HER3, AKT, ERK and their phosphorylated forms in PC9ER cells; experiment: Western blot time course of receptors and downstream pathways; type: cell-based, human; conditions: 10 μg/ml; for ERK activation / re-activation (phosphorylation): late peak at about 24 hours
Description: (§3) Western blot analysis—Cells were grown under specified conditions or treated as indicated. Following the cells were washed twice with cold PBS and scraped into lysis buffer [50 mM Hepes (pH 7.5), 10% glycerol, 150 mM NaCl, 1% Triton X-100, 1 mM EDTA, 1 mM EGTA, 10 mM NaF, 0.1 mM Na3VO4, and a complete protease inhibitor cocktail]. Thereafter, lysates were centrifuged at 14,000 g for 15 minutes at 4° C. The supernatant was used for subsequent procedures. Western blot analyses were conducted following protein separation using gel electrophoresis and transfer to nitrocellulose membranes. Immunoblotting was performed according to the antibody manufacturers' recommendation. Blocking was done using 5% milk in PBST (0.5% Tween20 Sigma Cat#P9416). Antibody binding to membrane blots was detected using horseradish peroxidase—secondary antibodies (Jackson ImmunoResearch Laboratories), followed by treatment with ECL Western blotting detection reagents (GE Healthcare).

[5] = system: EGFR, HER2, HER3 and phosphorylated forms in PC9ER and H1975 cells; experiment: Western blot after long-term exposure to anti-EGFR mAb; type: cell-based, human; conditions: resistant cell lines
Description: as §3

[6] = 3 days treatment with increasing doses, EGFR T790M

C=CC(=O)Nc1cc(Nc2nccc(-c3cn(C)c4ccccc34)n2)c(OC)cc1N(C)CCN(C)C [AZD-9291]
EGFR phosphorylation [1]: remained phosphorylated | EGFR phosphorylation ([1]; listed as AZD9291): failed to inhibit EGFR phosphorylation | body weight gain (H1975 NSCLC cells; AZD9291 5 mg/kg/day, compared with the triple mAb combination): slightly inhibited body weight gain | growth of the erlotinib-resistant human NSCLC tumor (H1975 NSCLC cells; AZD9291 5 mg/kg/day, triple combination of antibodies (CTX+TRZ+33)): comparably inhibited growth | survival / sensitivity (MTT) (PC9ER-AZDR cells [2]): lost sensitivity | survival / sensitivity (MTT) (PC9ER-AZDR cells [2]; listed as AZD9291): clearly demonstrated resistance | tumor growth / tumor volume (PC9ER-AZDR cells [3]): Neither erlotinib nor AZD9291 (at both low and high doses) were able to significantly inhibit tumor growth | tumor relapse in post-treatment phase (PC9ER NSCLC cells; erlotinib 1st line to approximately 550 mm^3, 2nd line treatment to day 50, then no treatment, AZD9291 1 or 5 mg/kg/d, 3×mAbs 0.2 mg/mouse/injection): relapse of tumors; also recorded: rapid and dramatic relapse

C#Cc1cccc(Nc2ncnc3cc(OCCOC)c(OCCOC)cc23)c1 [erlotinib]
cell survival (PC9 cells): strongly inhibited | cell survival (H1975 cells; [6]): exhibited resistance | cell survival (PC9ER cells; [6]): exhibited resistance | tumor growth / tumor volume (PC9ER-AZDR cells [3]): Neither erlotinib nor AZD9291 (at both low and high doses) were able to significantly inhibit tumor growth | tumor growth, 1st line phase (PC9ER NSCLC cells; erlotinib 50 mg/kg/d versus control group): no differences were noted

B1: mAb 33: anti-HER3 monoclonal antibody, clone NG33; VH SEQ ID NO: 5, Vkappa SEQ ID NO: 6 (antibody, V domains shown)
VH: DVQLQESGPGLVKPSQSLSLTCSVTGYSITSGFYWSWIRQFPGNKLEWMGYIAYDGTSNYNPSLKNRISITRDTSKNQFFLKLKSVTNEDTPTYYCARGGGYYGQLLDYWGQGTSVTVSS
VL: DARMTQSPSSLSASLGDRVTISCRASQDISNYLNWYQQKPDGTVKVLIYNTAKLHSGVPSRFSGSGSGTDYSLTISNLEQEDFATYFCQQGKTLPWTFGGGTKLELK
modifications: anti-HER3 33 VH amino acid sequence; anti-HER3 33 Vkappa amino acid sequence
tumor growth (H1975 NSCLC cells): neither anti-HER2, anti-HER3 nor combined anti-HER2 and anti-HER3 treatment repressed tumor growth | ability to inhibit survival of cultured NSCLC cells (H1975 cells; 10 μg/ml): superior ability to inhibit survival | ability to inhibit survival of cultured NSCLC cells (PC9ER cells; 10 μg/ml): superior ability to inhibit survival

B2: mAb 565: anti-EGFR monoclonal antibody, clone 565, CNCM I-4262; VH SEQ ID NO: 1, Vkappa SEQ ID NO: 2 (antibody, V domains shown)
VH: QVQLQQSGAELVKPGASVKLSCKASGYTFTNYWIHWVKQRPGQGLEWIGEIGPINGRSNYIEKFKTKATLTVDKSSSTTYLHLSSLTSEDSAVYYCAREDDYDGKAMDYWGQGTSVTVSS
VL: DIVMTQSHKFXSTSVGDRVSITCKASQNVGTAVAWYQQKPGQSPKLLIYWTSTRHTGVPDRFTGTGSGTEFTLTINNVQSEDLADYFCQQYSGYSFGGGTKLELKR
modifications: not fully specified; anti-EGFR 565 VH amino acid sequence; EGFR 565 kappa amino acid sequence; (11)..(11) Xaa can be any naturally occurring amino acid
EGFR protein level (degradation) [4]: almost disappeared | ERK activation / re-activation (phosphorylation) [4]: hyper-phosphorylation | phosphorylation of EGFR ([4]; listed as anti-EGFR mAb): initially reduced; also recorded: strikingly strong re-phosphorylation | HER2 and HER3 and their active tyrosine phosphorylated forms [5]: up-regulation | expression levels of EGFR [5]: gradual decrease | tumor growth (H1975 NSCLC cells): partly inhibited tumor growth | inhibition of survival (H1975 cells; 10 μg/ml, 4 days of incubation): approximately 40% | ability to inhibit survival of cultured NSCLC cells (H1975 cells; 10 μg/ml): superior ability to inhibit survival | inhibition of survival (PC9ER cells; 10 μg/ml, 4 days of incubation): approximately 40% | ability to inhibit survival of cultured NSCLC cells (PC9ER cells; 10 μg/ml): superior ability to inhibit survival

B3: mAb 12: anti-HER2 monoclonal antibody, clone N12, CNCM I-4112; VH SEQ ID NO: 3, Vkappa SEQ ID NO: 4 (antibody, V domains shown)
VH: QVQLQQSGAELVRPGDSVNLSCKASGYTFTSYWMYWIKQRPDQGLESIGNIHPNNGGTNYSGKFKNKASLTVDKSSTTAYMQLSSLTSEDSAVYFCARLTGIGMDYWGQGTSVIVSS
VL: B2 VL with X11M, K101R, L104I, R106L
modifications: of anti-HER2 N12 VH amino acid sequence; anti-HER2 N12 Vkappa amino acid sequence
ERK activation / re-activation (phosphorylation) [4]: induced ERK hyper-phosphorylation | tumor growth (H1975 NSCLC cells): neither anti-HER2, anti-HER3 nor combined anti-HER2 and anti-HER3 treatment repressed tumor growth | ability to inhibit survival of cultured NSCLC cells (H1975 cells; 10 μg/ml): superior ability to inhibit survival | ability to inhibit survival of cultured NSCLC cells (PC9ER cells; 10 μg/ml): superior ability to inhibit survival
